# Fewer inactive variants are shown than the library holds.
# Experiments:
# [1] = system: biotinyl-Phe-oxazolone; test: self-aminoacylation, catalytic enhancement (BFO) (fold over background); higher = more active; k-Seq, kA / k0A0; sequences stand for … in GGGAAUGGAUCCACAUCUACGAAUUC…UUCACUGCAGACUUGACGAAGCUG
# How it was run: (§1)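 Mutagenized RNA pools with a 21-nt variable region (0.43 μM) reacted with each biotinyl-aminoacyl-oxazolone at 2–1250 μM. Reactions ran in 50 μL HEPES/NaCl/KCl/MgCl2/CaCl2 buffer with 5% acetonitrile, pH 6.9–7.0, for 90 minutes at room temperature. Streptavidin-captured RNA was quantified by triplicate qPCR and Illumina sequencing, and per-sequence fraction reacted was fit to a pseudo-first-order model with 1000 bootstraps. Catalytic enhancement is median kA divided by the uncatalyzed rate, the low-activity peak of a bimodal Gaussian fit.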
# [2] = system: biotinyl-Ile-oxazolone; test: self-aminoacylation, catalytic enhancement (BIO) (fold over background); higher = more active; k-Seq, kA / k0A0; sequences stand for … in GGGAAUGGAUCCACAUCUACGAAUUC…UUCACUGCAGACUUGACGAAGCUG
# How it was run: as §1
# [3] = system: biotinyl-Met-oxazolone; test: self-aminoacylation, catalytic enhancement (BMO) (fold over background); higher = more active; k-Seq, kA / k0A0; sequences stand for … in GGGAAUGGAUCCACAUCUACGAAUUC…UUCACUGCAGACUUGACGAAGCUG
# How it was run: as §1
# [4] = system: biotinyl-Val-oxazolone; test: self-aminoacylation, catalytic enhancement (BVO) (fold over background); higher = more active; k-Seq, kA / k0A0; sequences stand for … in GGGAAUGGAUCCACAUCUACGAAUUC…UUCACUGCAGACUUGACGAAGCUG
# How it was run: as §1
# [5] = system: biotinyl-Leu-oxazolone; test: self-aminoacylation, catalytic enhancement (BLO) (fold over background); higher = more active; k-Seq, kA / k0A0; sequences stand for … in GGGAAUGGAUCCACAUCUACGAAUUC…UUCACUGCAGACUUGACGAAGCUG
# How it was run: as §1
# [6] = system: biotinyl-Trp-oxazolone; test: self-aminoacylation, catalytic enhancement (BWO) (fold over background); higher = more active; k-Seq, kA / k0A0; sequences stand for … in GGGAAUGGAUCCACAUCUACGAAUUC…UUCACUGCAGACUUGACGAAGCUG
# How it was run: as §1
Sequence,self-aminoacylation [1],self-aminoacylation [2],self-aminoacylation [3],self-aminoacylation [4],self-aminoacylation [5],self-aminoacylation [6]
AAGUUUGCUAAUAGUCGCCAU [Fam3.1 aminoacylation ribozyme variant],0.768,1.27,1.44,1.2,1.24,1.08
AUUCACCUAGUUCAUCGGUUG [Fam2.2 aminoacylation ribozyme variant],0.483,1.09,0.932,1.09,1.11,0.661
CCACACUUAAAGCAGUCGGUC [Fam1B.1 aminoacylation ribozyme variant],0.946,1.08,0.942,0.872,0.985,0.621
UAGUUUGCUAAUAGUCGAAAG [Fam3.1 aminoacylation ribozyme variant],6.07,1.33,1.09,1.15,1,3.49
CUACGUCUAACAAUCGGUCUG [Fam1A.1 aminoacylation ribozyme variant],1.21,0.89,0.918,0.856,0.941,0.703
AUACAUCUAGGUCAUCGGGUG [Fam2.2 aminoacylation ribozyme variant],24.4,3.19,4.39,2.85,4.8,5.51
AUUACCCUGGUCCUCCAGUGA [Fam2.1 aminoacylation ribozyme variant],49.6,4.44,7.44,3.79,8.6,9.12
CCUCACUUCAAGCAAUAGGUC [Fam1B.1 aminoacylation ribozyme variant],1.26,0.573,0.468,0.592,0.553,0.622
CUACUUCAAACAAGCGGUCUG [Fam1A.1 aminoacylation ribozyme variant],0.819,0.933,0.822,0.871,0.825,0.693
CUACUACAAUCAAUCGGUCUG [Fam1A.1 aminoacylation ribozyme variant],0.981,0.767,0.616,0.682,0.699,0.669
CUACUACAAACACUCGGUCUG [Fam1A.1 aminoacylation ribozyme variant],0.434,1.08,0.856,1.03,0.902,0.703
CCGUUUGCUAAUAGUCGCAAG [Fam3.1 aminoacylation ribozyme variant],1.94,1.22,0.83,0.972,1.02,1.1
AAGUUGGCUAGUAGUCGCAAG [Fam3.1 aminoacylation ribozyme variant],2.98,1.65,1.21,1.65,1.65,1.51
AUUACCCUUGUAAUCGAGUGA [Fam2.1 aminoacylation ribozyme variant],127,6.93,16.4,6.66,16.3,21.1
ACGUUUUCUAAUAGUCGCAAG [Fam3.1 aminoacylation ribozyme variant],2.79,1.75,1.59,1.53,1.67,1.55
AUUGCCCUGGUCAUGGAGUGA [Fam2.1 aminoacylation ribozyme variant],23.7,2.9,3.81,2.58,4.11,4.3
AAGUUUGUUAAUAGUCCCAAG [Fam3.1 aminoacylation ribozyme variant],1.12,0.846,0.751,0.884,0.775,0.847
AUUCCCCUGGUCAUCCAGUGA [Fam2.1 aminoacylation ribozyme variant],98.5,6.96,11.6,6.74,13.2,14.3
CCCCACUUCAAGAAAUCGGUC [Fam1B.1 aminoacylation ribozyme variant],11.6,1.36,1.17,1.42,1.81,9.76
AUUCACCAAGGUCAUCAGGUG [Fam2.2 aminoacylation ribozyme variant],3.44,1.6,2.1,1.37,2.25,1.79
AUUCACCUAGGUAAUCGUGUG [Fam2.2 aminoacylation ribozyme variant],3.38,0.879,0.915,0.838,1.14,0.758
GUACUUCAAACAGUCGGUCUG [Fam1A.1 aminoacylation ribozyme variant],1.14,1.32,1.41,1.22,1.3,1.5
AGUCACCUAGGUCGUCGGGUG [Fam2.2 aminoacylation ribozyme variant],12.9,2.48,2.28,2.43,4.29,2.71
AUUCACCUAGGUGAUGGGGUG [Fam2.2 aminoacylation ribozyme variant],14.4,2.02,2.65,2.21,2.81,2.65
AAGGUUGCUAUUAGUCGCAAG [Fam3.1 aminoacylation ribozyme variant],2.24,1.66,1.3,1.18,1.56,1.53
UUUCACCUUGGUCAUCGGGUG [Fam2.2 aminoacylation ribozyme variant],45.4,4.31,6.53,5.49,5.87,6.96

Sequence,self-aminoacylation [1],self-aminoacylation [2],self-aminoacylation [3],self-aminoacylation [4],self-aminoacylation [5],self-aminoacylation [6]
AUUCCCGUAGGUCAUCGGGUG [Fam2.2 aminoacylation ribozyme variant],259,17,25.3,20.2,32.4,25.3
CGACACUUCAAGCCAUCGGUC [Fam1B.1 aminoacylation ribozyme variant],0.589,1.3,1.17,1.59,1.17,1.9
CCACACUUCAGGCAAUCGGUG [Fam1B.1 aminoacylation ribozyme variant],36.7,3.23,5.39,3.41,7.5,4.89
AUACUUCAAACAAUCGGUUUG [Fam1A.1 aminoacylation ribozyme variant],12.9,1.05,0.91,1.06,1.14,9.98
AAGUUUGCCAAUAGUCGCCAG [Fam3.1 aminoacylation ribozyme variant],12.8,1.52,2.27,1.54,2.4,2.22
AUUACCUUGGUCAUGGAGUGA [Fam2.1 aminoacylation ribozyme variant],4.26,2.97,4.16,2.72,4.42,5.57
UCACACUUCAAGCAAUAGGUC [Fam1B.1 aminoacylation ribozyme variant],0.918,0.671,0.434,0.668,0.495,0.559
AUUCACCUAGGUCCUCCGGUG [Fam2.2 aminoacylation ribozyme variant],63.3,6.38,10.3,5.33,11.5,9.26
CUACUUUAAACAAUCGGUCAG [Fam1A.1 aminoacylation ribozyme variant],0.862,0.617,0.716,0.655,0.588,0.417
AUUCACCUAGGUUAUCUGGUG [Fam2.2 aminoacylation ribozyme variant],35.2,3.02,5.29,2.95,5.96,4.49
CUGCUUCAAACUAUCGGUCUG [Fam1A.1 aminoacylation ribozyme variant],1.35,0.856,0.752,1.07,0.976,0.937
AUUACCCUGGUCAUCGAUUGG [Fam2.1 aminoacylation ribozyme variant],0.798,0.665,0.715,0.856,0.713,1.3
AUUCACUUAGGCCAUCGGGUG [Fam2.2 aminoacylation ribozyme variant],16,2.53,3.04,2.65,3.9,3.26
AUUCACCUAGGUCAUCGCAUG [Fam2.2 aminoacylation ribozyme variant],0.374,1.05,1.04,1.28,1.22,1.06
AUUAGCCGGGUCAUCGAGUGA [Fam2.1 aminoacylation ribozyme variant],40.5,3.91,6.22,4.51,6.37,7.69
AAUUUUGCUCAUAGUCGCAAG [Fam3.1 aminoacylation ribozyme variant],3.17,1.85,1.82,1.57,1.98,1.69
GCACACUUCAAGCAAUCUGUC [Fam1B.1 aminoacylation ribozyme variant],1.22,0.87,0.605,0.867,0.708,0.902
CUACGUCAAACAAUCGAUCUG [Fam1A.1 aminoacylation ribozyme variant],0.827,0.801,0.903,0.794,0.617,1.06
AUUACCCUGGACCUCGAGUGA [Fam2.1 aminoacylation ribozyme variant],5.71,1.88,3.68,2.4,3.9,3.16
AUUACCCAGGUCAACGAGUGA [Fam2.1 aminoacylation ribozyme variant],24.9,3.57,7.03,3.76,6.2,7.71
AUUCACCUAGGUGUUCGGGUG [Fam2.2 aminoacylation ribozyme variant],21.7,2.79,3.31,2.93,4.31,3.74
AUUCACCUAGCCCAUCGGGUG [Fam2.2 aminoacylation ribozyme variant],13.6,2,2.92,2.58,3.35,3.11
AUUACCCUGGUCACCGAGGGA [Fam2.1 aminoacylation ribozyme variant],0.887,1.67,2.27,2.39,1.83,3.76
CUCCUUCAAACAAUCGGUCUC [Fam1A.1 aminoacylation ribozyme variant],40.8,1.11,1.19,0.933,1.75,26.2
AUUACCUAGGUCAUCGAGUGA [Fam2.1 aminoacylation ribozyme variant],6.96,4.2,6.35,4.01,7.92,7.91
